Data on 12 molecules can be found in patent publication US12077576 (TRUSTEES OF TUFTS COLLEGE, dated 2024).

Some results are limits rather than exact numbers.

The labels stand for the following.
B1: JZS-E6 (XAF-11) anti-TcdB VHH (VHH)
VHH: QVQLAETGGGLVQAGGSLRLSCAASGRLSERIFMISTMAWYRQVPGKQRELVAEISRLGRANYSDSVTDRFIISRDNTKNTVDLQMNSLKPEDTAVYYCNLKPFVDNYRGPGTQVTVSS
B2: JZS-C10 (XAF-9) anti-TcdB VHH (VHH)
VHH: QLQLVETGGLVQAGGSLRLSCVGSGRGPGINVMGWYRQAPGTERELVATWQTGGTTNYADSVKGRFTISRDNLKNTVSLQMDSLKPEDTAVYYCYLKKWRDEYWGQGTQVTVSS
B3: JZS-E4 (XAF-10) anti-TcdB VHH (VHH)
VHH: QVQLVESGGGLAQAGGSLRLSCAASGSSFSMNVMGWYRQPPGKQRELVATIRSDGITNYAESVKGRFTISRDNVKNTVHLEMNRLKAEDTAVYYCFHGRARTGNNADLGSWGQGTQVTVSS
notes: also called JZX-E4
B4: JZS-B2 (XAF-4) anti-TcdB VHH (VHH)
VHH: QVQLAESGGGLVQAGGSLRLSCVGSGTSFPRNYMGWYRQAPGKQRELVAAISHDGNVEYADSVKGRFTISRGNFVNTVALQMNSLKSEDTAVYYCKLVTLRRDEYWGQGTQVTVSS
B5: JZS-B9 (XAF-5) anti-TcdB VHH (VHH)
VHH: QLQLVESGGGLVQPGGSLRLSCTSARFSLINYAIGWFRQAPGQKREGVSLLTSGGATYYADSARDRFTISRDNARNTVYLQMNSLKPEDTAVYSCAAGPYSRTLVSRWKVGDGMEYWGKGTLVTVSS
B6: JZT-G9 (XAG-7) anti-TcdB VHH (VHH)
VHH: QVQLAETGGGLVQAGGSLRLSCVSSERNPGINAMGWYRQAPGSQRELVAVWQTGGSLSYADSVKGRFTISRDNLKNTVYLQMNSLKPEDAAVYYCYLKKWRDQYWGQGTRVTVSS
B7: JZS-A2a (XAF-1) anti-TcdB VHH (VHH)
VHH: QVQLAESGGGLVQAGGSLRLSCAASGSVYTFMGWYRQAPGKTRELVAGISGGTITKYADSVKGRFIISRDSPKNTIYLQMNELKVEDTGVYYCNAGDTIAQAMGTRRFPFDRWGQGTQVTVAS
B8: JZS-H4 (XAF-13) anti-TcdB VHH (VHH)
VHH: QLQLVESGGGLVQPGGSLRLSCVASGFNFSVQIMSWVRQAPGKGLEWVSAISTGGASKSYADFAKGRFTISRDNAKNTLYLQMNSLQLEDTAVYFCSKGPRTWINSSPRGQGTQVTVSS
B9: JZS-H9 (XAF-14) anti-TcdB VHH (VHH)
VHH: QVQLVESGGGLVQPGGSLTINCTVSGTAFSLDTMTWYRQAPGKQRELAADISSSGASNYLASVKGRFTISRDNAKSALYLQMNSLKPEDTGTYYCYRGRVRGVWPLDSGMMYWGKGTLVTVSS
notes: also called JZX-H9
B10: JZT-F7 (XAG-1) anti-TcdB VHH (VHH)
VHH: QVQLVETGGGLVQAGGSLRLSCAASGSILSSMGWYRQAPGNQREFVASISRTGATDYADSVAGRFIISRDRGKNTVLALQMDSLKPEDTAVYYCNAGLGMGDPRRPGPWWGQGTQVTVSS
B11: JZS-C2 (XAF-6) anti-TcdB VHH (VHH)
VHH: QVQLAESGGGLVQPGGSLRLSCAASGFTSNSYYIGWFRQAPGKGREAVSSISSSGGSPNYANAVKGRFTITRDNANNTVYLQMDNLKPEDTAVYYCAASKFPLTTMASNRYHYWGQGTQVTVSS
B12: JZS-F6 (XAF-12) anti-TcdB VHH (VHH)
VHH: QLQLAESGGGLVQPGGSLRLSCAASGITFSNVAMSWVRQAPGKGLEWVSTISTGGSSTSYLDSVKSRFTISRDNAKKTVYLQMNSLKPEDTAVYYCVKGPKYSATIRRPEGQGTQVTVSS

T1 sequence (P18177 2-2366): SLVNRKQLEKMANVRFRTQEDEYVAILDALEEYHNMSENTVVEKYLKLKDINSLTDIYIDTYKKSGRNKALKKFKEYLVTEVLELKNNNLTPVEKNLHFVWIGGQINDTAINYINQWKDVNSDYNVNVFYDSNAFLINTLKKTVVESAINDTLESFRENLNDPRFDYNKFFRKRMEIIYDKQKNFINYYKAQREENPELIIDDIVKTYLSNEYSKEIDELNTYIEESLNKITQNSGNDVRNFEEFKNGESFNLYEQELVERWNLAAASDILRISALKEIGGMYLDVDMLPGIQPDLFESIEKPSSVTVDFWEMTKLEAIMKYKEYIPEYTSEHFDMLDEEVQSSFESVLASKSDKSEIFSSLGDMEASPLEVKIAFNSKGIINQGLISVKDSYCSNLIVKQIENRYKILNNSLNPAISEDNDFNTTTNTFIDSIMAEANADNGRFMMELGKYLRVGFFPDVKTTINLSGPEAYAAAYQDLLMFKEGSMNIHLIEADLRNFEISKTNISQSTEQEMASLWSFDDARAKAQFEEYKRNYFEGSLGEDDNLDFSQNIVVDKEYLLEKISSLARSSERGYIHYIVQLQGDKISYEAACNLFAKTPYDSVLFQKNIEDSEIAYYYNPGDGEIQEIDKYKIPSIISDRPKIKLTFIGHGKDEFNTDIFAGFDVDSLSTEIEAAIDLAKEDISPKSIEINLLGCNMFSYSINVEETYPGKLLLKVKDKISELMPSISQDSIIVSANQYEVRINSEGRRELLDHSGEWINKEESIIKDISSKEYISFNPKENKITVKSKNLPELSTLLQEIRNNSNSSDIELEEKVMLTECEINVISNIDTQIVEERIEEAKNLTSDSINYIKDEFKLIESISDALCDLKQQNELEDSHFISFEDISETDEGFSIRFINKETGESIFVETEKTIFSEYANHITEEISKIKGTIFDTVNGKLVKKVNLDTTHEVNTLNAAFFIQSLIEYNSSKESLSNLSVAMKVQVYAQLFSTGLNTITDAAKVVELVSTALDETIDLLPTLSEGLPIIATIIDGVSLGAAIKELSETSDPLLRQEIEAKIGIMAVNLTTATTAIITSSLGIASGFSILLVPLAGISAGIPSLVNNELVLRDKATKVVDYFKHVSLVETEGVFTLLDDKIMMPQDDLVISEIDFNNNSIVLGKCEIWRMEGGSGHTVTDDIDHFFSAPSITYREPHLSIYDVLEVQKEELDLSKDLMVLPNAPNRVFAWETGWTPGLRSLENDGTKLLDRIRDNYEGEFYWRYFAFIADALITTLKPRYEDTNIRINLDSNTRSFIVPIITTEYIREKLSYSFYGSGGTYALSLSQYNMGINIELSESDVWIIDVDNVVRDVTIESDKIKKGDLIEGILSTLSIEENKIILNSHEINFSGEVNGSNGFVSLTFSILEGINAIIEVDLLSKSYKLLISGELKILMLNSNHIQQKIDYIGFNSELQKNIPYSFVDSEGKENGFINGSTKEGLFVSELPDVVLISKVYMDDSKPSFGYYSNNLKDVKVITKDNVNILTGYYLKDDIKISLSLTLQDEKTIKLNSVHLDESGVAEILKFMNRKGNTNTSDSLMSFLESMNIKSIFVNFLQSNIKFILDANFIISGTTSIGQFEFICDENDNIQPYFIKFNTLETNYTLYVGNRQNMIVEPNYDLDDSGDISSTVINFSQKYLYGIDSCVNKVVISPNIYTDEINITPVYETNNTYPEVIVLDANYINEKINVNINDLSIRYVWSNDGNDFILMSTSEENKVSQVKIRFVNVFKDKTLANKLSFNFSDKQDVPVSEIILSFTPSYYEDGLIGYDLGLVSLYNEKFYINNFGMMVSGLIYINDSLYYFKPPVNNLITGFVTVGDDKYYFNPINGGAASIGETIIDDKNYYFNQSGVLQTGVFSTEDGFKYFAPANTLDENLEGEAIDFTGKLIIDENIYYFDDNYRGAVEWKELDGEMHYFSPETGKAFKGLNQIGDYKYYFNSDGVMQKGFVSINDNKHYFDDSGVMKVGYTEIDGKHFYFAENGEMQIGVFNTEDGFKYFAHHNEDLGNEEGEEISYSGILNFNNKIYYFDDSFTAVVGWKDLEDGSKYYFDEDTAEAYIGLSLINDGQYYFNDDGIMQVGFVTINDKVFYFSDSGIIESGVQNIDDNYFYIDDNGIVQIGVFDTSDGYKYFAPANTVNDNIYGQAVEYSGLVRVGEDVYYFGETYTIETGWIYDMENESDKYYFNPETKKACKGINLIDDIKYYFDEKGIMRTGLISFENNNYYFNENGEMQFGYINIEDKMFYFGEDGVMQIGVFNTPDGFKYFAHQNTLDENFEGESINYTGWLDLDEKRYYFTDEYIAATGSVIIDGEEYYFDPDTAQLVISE

One assay addresses T1, Clostridium difficile toxin B (TcdB) (Clostridium difficile, UniProt P18177 2-2366).
T1 construct: also called rTcdB; TedB
The assay is described as follows: ELISA, VHH dilution series on plate-coated rTcdB, anti-E-tag-HRP detection. On the technique in general: In an ELISA, binding on a coated surface is turned into a signal by an enzyme label.
On to B1, for which the EC50 (commonly the concentration at which the effect is half-maximal) stood at 0.8 nM. That is a sub-nanomolar value.
Still for that read-out and setting: the value for B2 was 0.1 nM; that for B3 was 2 nM; that for B4 was 0.3 nM.
Same read-out and setting: for B5 the value was 0.2 nM; for B6, 0.1 nM; for B7, greater than 25 nM.
Same read-out and setting: the value for B8 was 0.2 nM; that for B9 was 1 nM; that for B10 was 3 nM.
Take B11: the EC50 turned out to be 3 nM.
Same read-out and setting: the value for B12 was 0.1 nM.

The next assay has as its target T1, Clostridium difficile toxin B (TcdB). The assay is described as follows: cell-based or functional assay.
Consider B1, for which the “Apparent potency, (IC50); TcdB neutralization, Vero cell rounding assay” value (shortened to “Apparent potency, (IC50)”) was determined as 1 nM.
Consider B2, for which the “Apparent potency, (IC50)” value came to 0.5 nM.
On the same count and under the same terms, for B3 the value was 1 nM; for B4, greater than 125 nM; for B5, 1 nM.
On the same count and under the same terms, the value for B6 was 3 nM; that for B7 was greater than 25 nM; that for B8 was 0.5 nM.
On the same count and under the same terms, for B9 the value was 15 nM.
As for B10, the “Apparent potency, (IC50)” value was found to be 1 nM.
The same measure, in the same setting: the value for B11 was 0.5 nM; that for B12 was 0.5 nM.

For a further assay the target is unchanged. The assay is described as follows: cell-based or functional assay. The source holds these as a separate data set.
With B3, the “IC50 TcdB-neutralization potency (FIG. 1), Vero cell rounding assay” value is roughly 0.5 nM.
